{"source": "patent US20180344812A1", "about": "(Scripps Research, published 2018)", "binders": {"B1": {"name": "mTA 59: GLP-2 (H) and L1 (peptide)", "peptide": "HGDGSFSDEMNTILDNCAARDFICWLIQTKITDPSSGAPPPS", "modifications": "linker 17-24 via L1"}, "B2": {"name": "mTA 65: GLP-2 (I) and L3 (peptide)", "peptide": "B1 peptide with E9C, N16C, C17L, C24N", "modifications": "linker 9-16 via L3; also: staple L3 carries myristic acid-PEG-PEG-ornithine lipid"}, "B3": {"name": "mTA 63: GLP-2 (H) and L5 (peptide)", "peptide": "B1 peptide", "modifications": "linker 17-24 via L5; also: staple L5 carries C18 diacid-Lys-PEG2-ornithine lipid"}, "B4": {"name": "mTA 64: GLP-2 (H) and L6 (peptide)", "peptide": "B1 peptide", "modifications": "linker 17-24 via L6"}, "B5": {"name": "mTA 61: GLP-2 (H) and L3 (peptide)", "peptide": "B1 peptide", "modifications": "linker 17-24 via L3; also: staple L3 carries myristic acid-PEG-PEG-ornithine lipid"}, "B6": {"name": "mTA 60: GLP-2 (H) and L2 (peptide)", "peptide": "B1 peptide", "modifications": "linker 17-24 via L2; also: staple L2 carries myristic acid-PEG-ornithine lipid"}, "B7": {"name": "mTA 70: GLP-2 (J) and L5 (peptide)", "peptide": "B1 peptide with N11C, C17L, A18C, C24N", "modifications": "linker 11-18 via L5; also: staple L5 carries C18 diacid-Lys-PEG2-ornithine lipid"}, "B8": {"name": "mTA 67: GLP-2 (I) and L5 (peptide)", "peptide": "B1 peptide with E9C, N16C, C17L, C24N", "modifications": "linker 9-16 via L5; also: staple L5 carries C18 diacid-Lys-PEG2-ornithine lipid"}, "B9": {"name": "mTA 68: GLP-2 (J) and L3 (peptide)", "peptide": "B1 peptide with N11C, C17L, A18C, C24N", "modifications": "linker 11-18 via L3; also: staple L3 carries myristic acid-PEG-PEG-ornithine lipid"}, "B10": {"name": "mTA 56: GLP-2 (F) and L5 (peptide)", "peptide": "HGDGSFSDCMNTILDCLAARDFINWLIQTKITD", "modifications": "linker 9-16 via L5"}, "B11": {"name": "mTA 58: GLP-2 (G) and L5 (peptide)", "peptide": "B10 peptide with C9E, N11C, C16N, A18C", "modifications": "linker 11-18 via L5"}, "B12": {"name": "mTA 57: GLP-2 (G) and L1 (peptide)", "peptide": "B10 peptide with C9E, N11C, C16N, A18C", "modifications": "linker 11-18 via L1"}, "B13": {"name": "mTA 40: GLP-1/GIP (A) and L1 (peptide)", "peptide": "Y[dA]EGTFTSDYSIYLDKCAAKEFVCWLLAGGPSSGAPPPSK", "modifications": "linker 17-24 via L1"}, "B14": {"name": "mTA 41: GLP-1/GIP (A) and L3 (peptide)", "peptide": "Y[dA]EGTFTSDYSIYLDKCAAKEFVCWLLAGGPSSGAPPPSK", "modifications": "linker 17-24 via L3"}, "B15": {"name": "mTA 43: GLP-1/GIP (A) and L5 (peptide)", "peptide": "Y[dA]EGTFTSDYSIYLDKCAAKEFVCWLLAGGPSSGAPPPSK", "modifications": "linker 17-24 via L5"}, "B16": {"name": "mTA 44: GLP-1/GIP/Glucagon (A) and L1 (peptide)", "peptide": "Y[dA]EGTFISDYSKYLDECAAKEFICWLMNTKRNRNNIA", "modifications": "linker 17-24 via L1"}}, "note": "Where a chain is given by its changes, count along the chain named. Bridges are numbered along the chain shown (N, C = ends). Where no end group is shown, it is not given here. [ ]: non-standard residue; d: D form. L1 = C4 bis(bromoacetamide) staple without lipid; L3 = myristic acid-PEG-PEG-ornithine staple; L5 = C18 diacid-Lys-PEG2-ornithine staple; L2 = myristic acid-PEG-ornithine staple; L6 = made as L5 but on Rink amide resin", "data": [{"target": "T1, human Glucagon-like peptide 2 receptor (GLP-2R) (human, UniProt O95838 1-553)", "T1 sequence (looked up)": "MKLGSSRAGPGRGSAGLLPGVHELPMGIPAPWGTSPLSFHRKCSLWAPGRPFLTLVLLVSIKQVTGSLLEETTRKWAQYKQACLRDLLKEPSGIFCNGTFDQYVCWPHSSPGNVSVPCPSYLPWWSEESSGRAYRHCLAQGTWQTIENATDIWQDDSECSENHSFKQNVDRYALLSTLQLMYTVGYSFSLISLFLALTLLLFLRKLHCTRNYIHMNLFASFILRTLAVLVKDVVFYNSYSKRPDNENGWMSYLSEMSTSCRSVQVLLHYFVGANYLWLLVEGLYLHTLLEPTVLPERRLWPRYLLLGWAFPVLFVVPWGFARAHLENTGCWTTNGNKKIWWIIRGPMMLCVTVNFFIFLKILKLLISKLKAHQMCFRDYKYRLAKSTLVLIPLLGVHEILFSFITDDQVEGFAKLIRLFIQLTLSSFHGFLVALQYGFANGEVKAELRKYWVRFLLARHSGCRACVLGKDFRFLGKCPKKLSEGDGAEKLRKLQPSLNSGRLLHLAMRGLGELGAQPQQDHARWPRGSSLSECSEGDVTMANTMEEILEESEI", "assay": "cell-based or functional assay", "units": {"EC50, CRE-luciferase reporter in HEK293-GLP-2R-CRE cells": "nM"}, "values": [{"binder": "B1", "EC50, CRE-luciferase reporter in HEK293-GLP-2R-CRE cells": 0.064}, {"binder": "B2", "EC50, CRE-luciferase reporter in HEK293-GLP-2R-CRE cells": 0.06}, {"binder": "B3", "EC50, CRE-luciferase reporter in HEK293-GLP-2R-CRE cells": 2.66}, {"binder": "B4", "EC50, CRE-luciferase reporter in HEK293-GLP-2R-CRE cells": 0.7}, {"binder": "B5", "EC50, CRE-luciferase reporter in HEK293-GLP-2R-CRE cells": 0.068}, {"binder": "B6", "EC50, CRE-luciferase reporter in HEK293-GLP-2R-CRE cells": 0.068}, {"binder": "B7", "EC50, CRE-luciferase reporter in HEK293-GLP-2R-CRE cells": 8.8}, {"binder": "B8", "EC50, CRE-luciferase reporter in HEK293-GLP-2R-CRE cells": 3.1}, {"binder": "B9", "EC50, CRE-luciferase reporter in HEK293-GLP-2R-CRE cells": 0.028}, {"binder": "B10", "EC50, CRE-luciferase reporter in HEK293-GLP-2R-CRE cells": 0.77}, {"binder": "B11", "EC50, CRE-luciferase reporter in HEK293-GLP-2R-CRE cells": 7.98}, {"binder": "B12", "EC50, CRE-luciferase reporter in HEK293-GLP-2R-CRE cells": 0.046}]}, {"target": "T2, human Glucose-dependent insulinotropic polypeptide receptor (GIPR) (human, UniProt P48546 22-466)", "T2 sequence (looked up)": "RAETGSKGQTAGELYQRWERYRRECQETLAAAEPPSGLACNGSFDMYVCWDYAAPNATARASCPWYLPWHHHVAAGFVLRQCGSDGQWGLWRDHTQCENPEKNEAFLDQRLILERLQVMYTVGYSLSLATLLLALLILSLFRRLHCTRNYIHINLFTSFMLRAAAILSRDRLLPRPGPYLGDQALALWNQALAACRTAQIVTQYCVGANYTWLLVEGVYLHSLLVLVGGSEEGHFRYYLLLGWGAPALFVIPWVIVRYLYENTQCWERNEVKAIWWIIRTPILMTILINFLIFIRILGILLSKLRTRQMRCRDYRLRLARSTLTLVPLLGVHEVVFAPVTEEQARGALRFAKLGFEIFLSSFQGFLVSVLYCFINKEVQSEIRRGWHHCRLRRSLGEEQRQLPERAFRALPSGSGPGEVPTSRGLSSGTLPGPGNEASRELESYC", "assay": "cell-based or functional assay", "units": {"EC50, CRE-luciferase reporter in HEK293-GIPR-CRE cells": "nM"}, "values": [{"binder": "B13", "EC50, CRE-luciferase reporter in HEK293-GIPR-CRE cells": 0.02}, {"binder": "B14", "EC50, CRE-luciferase reporter in HEK293-GIPR-CRE cells": 0.06}, {"binder": "B15", "EC50, CRE-luciferase reporter in HEK293-GIPR-CRE cells": 1.1}]}, {"target": "T3, human glucagon-like peptide 1 receptor (GLP-1R) (human, UniProt P43220 24-463)", "assay": "cell-based or functional assay", "units": {"EC50, CRE-luciferase reporter in HEK293-GLP-1R-CRE cells": "nM"}, "values": [{"binder": "B13", "EC50, CRE-luciferase reporter in HEK293-GLP-1R-CRE cells": 0.02}, {"binder": "B14", "EC50, CRE-luciferase reporter in HEK293-GLP-1R-CRE cells": 0.02}, {"binder": "B15", "EC50, CRE-luciferase reporter in HEK293-GLP-1R-CRE cells": 0.5}]}, {"target": "T2, human Glucose-dependent insulinotropic …", "assay": "cell-based or functional assay", "remark": "another data set of the same source", "units": {"EC50, CRE-luciferase reporter in HEK293-GIPR-CRE cells": "nM"}, "values": [{"binder": "B16", "EC50, CRE-luciferase reporter in HEK293-GIPR-CRE cells": 0.04}]}, {"target": "T3, human glucagon-like peptide 1 receptor …", "assay": "cell-based or functional assay", "remark": "another data set of the same source", "units": {"EC50, CRE-luciferase reporter in HEK293-GLP-1R-CRE cells": "nM"}, "values": [{"binder": "B16", "EC50, CRE-luciferase reporter in HEK293-GLP-1R-CRE cells": 9.7}]}, {"target": "human glucagon receptor (GCGR) (human, UniProt P47871 26-477)", "sequence (P47871 26-477)": "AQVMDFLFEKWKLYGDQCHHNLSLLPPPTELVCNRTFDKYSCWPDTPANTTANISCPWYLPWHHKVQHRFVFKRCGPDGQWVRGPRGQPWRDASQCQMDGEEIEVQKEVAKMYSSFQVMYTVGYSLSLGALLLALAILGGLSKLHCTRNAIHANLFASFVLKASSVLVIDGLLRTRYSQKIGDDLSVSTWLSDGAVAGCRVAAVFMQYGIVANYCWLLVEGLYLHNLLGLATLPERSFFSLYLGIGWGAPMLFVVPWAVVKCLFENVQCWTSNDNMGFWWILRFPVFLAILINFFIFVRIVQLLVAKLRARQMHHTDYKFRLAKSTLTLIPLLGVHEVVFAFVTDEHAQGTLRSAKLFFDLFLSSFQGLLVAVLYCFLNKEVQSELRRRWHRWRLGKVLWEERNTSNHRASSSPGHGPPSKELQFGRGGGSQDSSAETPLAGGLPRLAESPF", "assay": "cell-based or functional assay", "units": {"EC50, CRE-luciferase reporter in HEK293-GCGR-CRE cells": "nM"}, "values": [{"binder": "B16", "EC50, CRE-luciferase reporter in HEK293-GCGR-CRE cells": 1.6}]}]}
